Molecular target: CohE-CBM(C63S)-ybbR (Ruminococcus flavefaciens)
Assay: ITC

Kd: 149 nM
Substance: ybbR-CBM(C63S)-ScaB-XDoc (domain or fragment)
